Where a chain is given by its changes, count along the chain named.
B1: 5an180ME (antibody, V domains shown)
VH: EVQLQQPGAEIVRPGASVKLSCRASGYTFTDYWMNWVKQRPGQGLEWIGTIDPSDSYTIYNQKFKGKATLTVDTSSTTAYIQLSSLTSEDSAVYFCARGEDYDVSSYTMDYWGQGTSVTVSS
VL: DIQMTQSPASLSASVGETVTITCRASENIYSYLAWYQQKQGKSPQLLVYNAKTLAEGVPSRFSGSGSGTQFSLKINSLQPEDFGSYYCQHHYGTPYTFGGGTKLEIKR
notes: Full length mouse IgG2a
B2: 5an178ME (antibody, V domains shown)
VH: EVKLVESGGGLVQPGGSRKLSCAASGFTFSDYGMVWVRQAPGKGLEWVAFISSGSSNIYYADTVKGRFTISRDNPKNTLFLQMNSLRSEDTAIYYCGRAFSFYYGYDYWGQGTTLTVSS
VL: EIVLTQSPASLAVSLGQRATISCSASESVEYFGTSLMQWYQQKPGQPPKLLIYAASNVESGVPARFSGSGSGTDFSLNIHPVEEDDIAMYFCQQSRKVPWTFGGGTKLEIKR
notes: Full length mouse IgG2a
B3: 5an179ME (antibody, V domains shown)
VH: EVQLQQSGPELVKPGASVRMSCKASGYTFTSYLIHWVKQKPGQGLEWIGYIYPFNDGTKNNENFKGKATLTSDKSSSTVYMEVSSLTSEDSAVYYCARSHGPHYYGGSYGYHFDYWGQGTTLTVSS
VL: DVVMTQTPLSLPVSLGDQASISCRSSQSLVHSNGNTYLHWYLQKPGQSPKLLIYKVSNRFSGVPDRFSGSGSGTDFTLKISRVEAEDLGVYFCSQSTHVPLTFGAGTKLELKR
notes: Full length mouse IgG2a
B4: BNJ383 (antibody, human IgG2, kappa, V domains shown)
VH: QVQLVQSGAEVKKPGASVKVSCKASGYTFTDYSMDWVRQAPGQGLEWMGAIHLNTGYTNYNQKFKGRVTMTRDTSTSTVYMELSSLRSEDTAVYYCARGFYDGYSPMDYWGQGTTVTVSS
VL: DIQMTQSPSSLSASVGDRVTITCRASESVDSYGNSFMHWYQQKPGKAPKLLIYRASNLESGVPSRFSGSGSGTDFTLTISSLQPEDFATYYCQQSNEDPYTFGGGTKVEIKR
notes: Humanized bivalent full length IgG; also called anti-hC5a antibody
B5: BNJ378 (antibody, human IgG2, kappa, V domains shown)
VH: QVQLVQSGAEVKKPGASVKVSCKASGYTFTDYSMDWVRQAPGQGLEWMGAINPNSGGTNYNQKFKDRVTMTRDTSTSTVYMELSSLRSEDTAVYYCARSGSYDGYYAMDYWGQGTTVTVSS
VL: B4 VL
notes: Humanized full length IgG
B6: BNJ347 (antibody, V domains shown)
VH: B4 VH with P41S, Q43K, M70I, R72A, T74E, V79A
VL: DIVMTQSPDSLAVSLGERATINCRASESVDSYGNSFMHWYQQKPGQPPKLLIYRASNLESGVPDRFSGSGSGTDFTLTISSLQAEDVAVYYCQQSNEDPYTFGGGTKVEIKR
notes: also called BNJ347 humanized anti-C5a antibody
B7: BNJ354 (antibody, V domains shown)
VH: B4 VH with P41S, Q43K
VL: B6 VL
notes: also called BNJ354 humanized anti-C5a antibody
B8: BNJ346 (antibody, V domains shown)
VH: B4 VH with M48V, M70I, R72A, T74E, V79A
VL: B6 VL
notes: also called BNJ346 humanized anti-C5a antibody
B9: BNJ345 (antibody, V domains shown)
VH: B4 VH with A9S, V11L, M70I, R72A, T74E, V79A
VL: B6 VL
notes: also called BNJ345 humanized anti-C5a antibody
B10: BNJ350 (antibody, V domains shown)
VH: B5 VH with M48V, N61S, M70I, R72A, T74E, V79A
VL: B6 VL
notes: also called BNJ350 humanized anti-C5a antibody
B11: 5an048ME (antibody, V domains shown)
VH: EVRLQQSGPELVKPGASVRISCKASGYTFNDYYYMNWVKQSHGKSLEWIGYIFPKTGGTHYNQRFKGKATLTVDKSSSTAYMELRSLTSEDSAVYYCASGPFAYWGQGTLVTVSA
VL: EIVLTQSPAIMSASPGEKVTMTCRASSSVSSSYLHWYQQKSGASPKLWIYSTSNLASGVPARFSGSGSGTSYSLTISSVEAEDAATYYCQQYSGYPLTFGGGTKLEIKR
notes: Full length mouse IgG2a
B12: BNJ366 (antibody, human IgG2, kappa)
heavy: QVQLVQSGAEVKKPGASVKVSCKASGYTFTDYSMDWVRQAPGQGLEWMGAIHLNTGYTNYNQKFKGRVTMTRDTSTSTVYMELSSLRSEDTAVYYCARGFYDGYSPMDYWGQGTTVTVSSASTKGPSVFPLAPCSRSTSESTAALGCLVKDYFPEPVTVSWNSGALTSGVHTFPAVLQSSGLYSLSSVVTVPSSNFGTQTYTCNVDHKPSNTKVDKTVERKCCVECPPCPAPPVAGPSVFLFPPKPKDTLMISRTPEVTCVVVDVSHEDPEVQFNWYVDGVEVHNAKTKPREEQFNSTFRVVSVLTVVHQDWLNGKEYKCKVSNKGLPAPIEKTISKTKGQPREPQVYTLPPSREEMTKNQVSLTCLVKGFYPSDISVEWESNGQPENNYKTTPPMLDSDGSFFLYSKLTVDKSRWQQGNVFSCSVMHEALHNHYTQKSLSLSPGK
light: DIVMTQSPDSLAVSLGERATINCRASESVDSYGNSFMHWYQQKPGQPPKLLIYRASNLESGVPDRFSGSGSGTDFTLTISSLQAEDVAVYYCQQSNEDPYTFGGGTKVEIKRTVAAPSVFIFPPSDEQLKSGTASVVCLLNNFYPREAKVQWKVDNALQSGNSQESVTEQDSKDSTYSLSSTLTLSKADYEKHKVYACEVTHQGLSSPVTKSFNRGEC
notes: Humanized full length IgG
B13: 5an101ME (antibody, V domains shown)
VH: EVQLQQSGPELVKPGSSVKISCKASGYTFTDYSMDWVKQSHGKSLEWIGAINPNSGGTNYSQKFKDKATLTVDKSSSTAYMELRSLTSEDSAVYYCASSGSYDGYYAMDYWGQGTSVTVSS
VL: DIVMTQSPASLAVSLGQRATISCRASESVDSYGNSFMHWYQQKPGQPPKLLIYRASNLESGIPARFSGSGSRTDFTLTINPVEADDVATYYCQQSNEDPYTFGGGTKLEIKR
notes: Full length mouse IgG2a

How the values were obtained:
human C5a desarg = target: T1, human C5a desarg (human, UniProt P01031 678-750); experiment: Biolayer interferometry (Octet); biotinylated antigen on streptavidin tip, 20 nM IgG in solution
T1 construct: also called desarginated C5a; hC5a desarg
T1 sequence: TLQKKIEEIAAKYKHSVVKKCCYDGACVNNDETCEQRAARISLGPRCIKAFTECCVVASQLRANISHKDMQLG
Experimental: (§2) These antibodies were evaluated for specificity using Biolayer Interferometry on an Octet (ForteBio Inc.).

human C5a [1] = target: T2, human C5a (human, UniProt P01031 678-751); experiment: Biolayer interferometry (Octet)
T2 construct: also called hC5a; free human C5a
T2 sequence: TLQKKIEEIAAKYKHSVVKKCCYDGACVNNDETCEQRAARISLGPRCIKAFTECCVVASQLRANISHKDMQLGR

human C3a [2] = target: T3, human C3a (human, UniProt P01024 672-748); experiment: Biolayer interferometry (Octet); biotinylated antigen on streptavidin tip, IgG in solution
T3 construct: domain: C3a
Experimental: as §2

human full-length C5 [3] = target: T4, human full-length C5 (human, UniProt P01031 19-673; P01031 678-1676); experiment: as above
T4 construct: mature; also called uncleaved human C5; native, fully-folded human C5
Target sequence in this assay (P01031 19-673 limits assumed, one chain of several): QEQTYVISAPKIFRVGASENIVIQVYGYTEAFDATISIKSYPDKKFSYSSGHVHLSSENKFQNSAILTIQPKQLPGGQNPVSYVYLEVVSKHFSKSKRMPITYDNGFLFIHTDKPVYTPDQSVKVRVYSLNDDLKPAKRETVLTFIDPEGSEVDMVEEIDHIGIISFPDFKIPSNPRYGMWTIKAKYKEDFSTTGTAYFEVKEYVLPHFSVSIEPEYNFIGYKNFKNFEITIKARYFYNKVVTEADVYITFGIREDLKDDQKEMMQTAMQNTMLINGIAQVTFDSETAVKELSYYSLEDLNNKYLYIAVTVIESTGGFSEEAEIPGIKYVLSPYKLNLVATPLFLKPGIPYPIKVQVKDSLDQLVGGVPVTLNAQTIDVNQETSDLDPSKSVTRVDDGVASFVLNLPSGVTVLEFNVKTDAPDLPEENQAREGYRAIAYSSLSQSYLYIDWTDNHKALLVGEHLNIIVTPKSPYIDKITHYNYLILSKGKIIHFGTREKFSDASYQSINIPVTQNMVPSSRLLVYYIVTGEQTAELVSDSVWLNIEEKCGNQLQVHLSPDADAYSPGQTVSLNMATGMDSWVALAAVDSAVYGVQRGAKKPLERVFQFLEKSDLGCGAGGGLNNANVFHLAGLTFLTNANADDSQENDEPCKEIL
Experimental: as §2

human C4a [4] = target: T5, human C4a (human, UniProt P0C0L4 680-756); experiment: as above
T5 construct: domain: C4a
T5 sequence (looked up): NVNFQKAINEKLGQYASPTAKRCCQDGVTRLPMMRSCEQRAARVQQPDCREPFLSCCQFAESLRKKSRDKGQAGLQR
Experimental: as §2

human C5a [5] = target: T2, human C5a; experiment: Biolayer interferometry (Octet); biotinylated antigen on streptavidin tip, 20 nM IgG in solution
Experimental: as §2

mouse C5a = target: T6, mouse C5a (mouse, UniProt P06684 683-755); experiment: SPR (Biacore); antibody captured by anti-human Fc on CM5 chip, recombinant mouse C5a 0.6-5.9 nM as analyte; 1:1 Langmuir fit; footnote: only an approximation of the KD
T6 construct: also called recombinant mouse C5a
T6 sequence: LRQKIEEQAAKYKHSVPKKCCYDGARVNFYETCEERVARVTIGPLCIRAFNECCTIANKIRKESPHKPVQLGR
Experimental: The surface was regenerated with 20 mM HCl, 0.02% P20 after each cycle to remove bound antibody and antigen. The data were evaluated using Biacore BlAevaluation software using a 1:1 Langmuir Model Fit (Rmax:Global Fit; R1:Local Fit).

cynomolgus macaque C5a = target: T7, cynomolgus macaque C5a (cynomolgus macaque); experiment: SPR (Biacore); antibody captured by anti-human Fc on CM5 chip, recombinant cynomolgus C5a 0.6-5.9 nM as analyte; 1:1 Langmuir fit
T7 construct: also called recombinant cynomolgus macaque C5a; cynomolgus C5a
T7 chain: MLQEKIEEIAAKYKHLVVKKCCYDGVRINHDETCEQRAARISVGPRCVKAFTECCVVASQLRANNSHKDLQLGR
Experimental: The surface was regenerated with 20 mM HCl, 0.02% surfactant P20 (Biacore) after each cycle to remove bound antibody and antigen. The data was evaluated using Biacore BlAevaluation software using a 1:1 Langmuir Model Fit (Rmax:Global Fit; R1:Local Fit). These experiments were for screening purposes with a minimal number of analyte concentrations (3 to 4) with 1 duplicate.

human C5a [6] = target: T2, human C5a; experiment: SPR (Biacore); summary sentence of Table 4
Experimental: (§1) See, e.g., Karlsson and Larsson (2004) Methods Mol Biol 248:389-415. […] The surface was regenerated with 20 mM HCl, 0.02% P20 after each cycle to remove bound antibody and antigen. The data was evaluated using Biacore BlAevaluation software using a 1:1 Langmuir Model Fit (Rmax:Global Fit; R1:Local Fit). Kinetics information such as (kₐ: Association Rate constant), (kd:Dissociation Rate constant) and KD (Equilibrium Dissociation constant) was obtained from the fit. These experiments were for screening purposes with a minimal number of analyte concentrations (3 to 4) with 1 duplicate.

human C5a [7] = target: T2, human C5a; experiment: SPR (Biacore); antibody captured by anti-human Fc on CM5 chip, human C5a 0.6-5.9 nM as analyte; 1:1 Langmuir fit
Experimental: as §1

human C3a [8] = target: T3, human C3a; experiment: Octet analysis
human full-length C5 [9] = target: T4, human full-length C5; experiment: Octet analysis
Target sequence in this assay (P01031 19-673 limits assumed, chain 1 of 2): as the sequence (P01031 19-673 limits assumed, one chain of several) above
Target sequence in this assay (P01031 678-1676 limits assumed, chain 2 of 2): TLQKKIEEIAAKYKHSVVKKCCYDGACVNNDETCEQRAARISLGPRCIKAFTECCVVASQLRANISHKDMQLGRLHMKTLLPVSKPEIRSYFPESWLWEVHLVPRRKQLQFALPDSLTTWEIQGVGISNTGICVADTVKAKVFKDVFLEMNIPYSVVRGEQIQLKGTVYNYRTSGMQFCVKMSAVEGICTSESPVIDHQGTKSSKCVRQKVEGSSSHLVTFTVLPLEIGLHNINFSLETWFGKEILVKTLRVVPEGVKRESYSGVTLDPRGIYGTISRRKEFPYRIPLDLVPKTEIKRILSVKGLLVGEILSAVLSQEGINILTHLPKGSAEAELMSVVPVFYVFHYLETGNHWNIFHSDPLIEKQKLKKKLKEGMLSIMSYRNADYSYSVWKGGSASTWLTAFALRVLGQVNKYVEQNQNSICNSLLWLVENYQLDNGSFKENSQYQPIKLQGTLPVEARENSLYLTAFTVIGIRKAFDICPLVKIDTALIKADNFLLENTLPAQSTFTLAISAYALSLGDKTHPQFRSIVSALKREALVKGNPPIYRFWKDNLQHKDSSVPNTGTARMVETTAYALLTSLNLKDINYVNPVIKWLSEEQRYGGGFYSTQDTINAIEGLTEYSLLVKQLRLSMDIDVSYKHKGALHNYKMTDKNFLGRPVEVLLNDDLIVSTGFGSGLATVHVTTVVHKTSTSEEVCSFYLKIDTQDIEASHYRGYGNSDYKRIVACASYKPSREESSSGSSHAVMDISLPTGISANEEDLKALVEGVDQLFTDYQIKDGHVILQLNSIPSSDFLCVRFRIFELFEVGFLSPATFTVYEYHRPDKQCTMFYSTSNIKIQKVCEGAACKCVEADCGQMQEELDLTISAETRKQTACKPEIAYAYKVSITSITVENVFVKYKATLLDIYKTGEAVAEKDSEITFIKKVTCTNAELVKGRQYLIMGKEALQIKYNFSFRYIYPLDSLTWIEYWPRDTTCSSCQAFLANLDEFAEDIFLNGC

human C4a [10] = target: T5, human C4a; experiment: Octet analysis

T3 sequence (P01024 672-748 limits assumed): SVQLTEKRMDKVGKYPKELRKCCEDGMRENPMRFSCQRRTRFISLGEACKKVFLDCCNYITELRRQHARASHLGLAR

Binder	binding result (human C5a desarg)	binding result (human C3a [2])	binding result (human C4a [4])	binding result (human C3a [8])	binding result (human full-length C5 [9])	binding result (human C4a [10])	other results
B1	binds	no binding (tested: 20 nM)	no binding (tested: 20 nM)	–	–	–	binding result (human C5a [1]): binds; binding result (human full-length C5 [3]): no binding (tested: 20 nM)
B2	binds	no binding (tested: 20 nM)	no binding (tested: 20 nM)	–	–	–	binding result (human C5a [5]): binds
B3	binds	no binding (tested: 20 nM)	no binding (tested: 20 nM)	–	–	–	binding result (human C5a [5]): binds
B4	–	–	–	–	–	–	Kd (mouse C5a): ~0.379 nM; Kd (cynomolgus macaque C5a): 3.3 nM
B5	–	–	–	–	–	–	Kd (human C5a [6]): < 1 nM; Kd (human C5a [7]): 0.298 nM; koff (human C5a [7]): 0.000576 s⁻¹; kon (human C5a [7]): 1.93e+06 M⁻¹ s⁻¹
B6	–	–	–	no binding	no binding	no binding	–
B7	–	–	–	no binding	no binding	no binding	–
B8	–	–	–	no binding	no binding	no binding	–
B9	–	–	–	no binding	no binding	no binding	–
B10	–	–	–	no binding	no binding	no binding	–
B11	binds	no binding (tested: 20 nM)	no binding (tested: 20 nM)	–	–	–	binding result (human C5a [5]): binds
B12	–	–	–	–	–	–	Kd (human C5a [6]): < 1 nM; Kd (human C5a [7]): 0.15 nM; koff (human C5a [7]): 0.000158 s⁻¹; kon (human C5a [7]): 1.05e+06 M⁻¹ s⁻¹
B13	binds	no binding (tested: 20 nM)	no binding (tested: 20 nM)	–	–	–	binding result (human C5a [1]): binds; binding result (human full-length C5 [3]): no binding (tested: 20 nM)

Reference: US20130224187A1 (Alexion, published 2013)
